Measurements: US20030192074A1

Key:
[1] = target: AvrMla6 avirulence gene product of Erysiphe graminis f. sp. hordei (Erysiphe (=Blumeria) graminis f sp hordei)
[2] = target: AvrMla1 avirulence gene product of Erysiphe graminis f. sp. hordei (Erysiphe (=Blumeria) graminis f sp hordei)
[3] = target: AvrMla6 avirulence gene product of Erysiphe graminis f. sp. hordei (Erysiphe (=Blumeria) graminis f sp hordei); remark: listed apart in the source

| Substance | percent of GUS stained wheat (CERCO) cells with an attached spore that contain haustorium, isolate A6 [1] | percent of GFP-Mlo expressing cells with an attached spore that support a fungal colony (3-component single-cell assay, mlo-5 barley leaves, isolate K1) [2] | percent of GFP-Mlo expressing cells with an attached spore that support a fungal colony (3-component single-cell assay, mlo-5 barley leaves, isolate A6) [3] |
| --- | --- | --- | --- |
| MLA1 polypeptide (product of R gene A, Mla1, of barley line CI-16137, AlgR Mla1) | 23.9% | 9.3% | 47.1% |
| MLA6 polypeptide (product of Mla6 of barley line C.I. 16151) | 9.2% | 46.5% | 9.4% |
